Biological target: CEACAM1 expressed on transfected cells (CHO-CEACAM1, HeLa CC1, HeLa-CC1H) (human) (UniProt P13688)
Assay: cell-based or functional assay

Chain of UniProt P13688 (P13688 35-526): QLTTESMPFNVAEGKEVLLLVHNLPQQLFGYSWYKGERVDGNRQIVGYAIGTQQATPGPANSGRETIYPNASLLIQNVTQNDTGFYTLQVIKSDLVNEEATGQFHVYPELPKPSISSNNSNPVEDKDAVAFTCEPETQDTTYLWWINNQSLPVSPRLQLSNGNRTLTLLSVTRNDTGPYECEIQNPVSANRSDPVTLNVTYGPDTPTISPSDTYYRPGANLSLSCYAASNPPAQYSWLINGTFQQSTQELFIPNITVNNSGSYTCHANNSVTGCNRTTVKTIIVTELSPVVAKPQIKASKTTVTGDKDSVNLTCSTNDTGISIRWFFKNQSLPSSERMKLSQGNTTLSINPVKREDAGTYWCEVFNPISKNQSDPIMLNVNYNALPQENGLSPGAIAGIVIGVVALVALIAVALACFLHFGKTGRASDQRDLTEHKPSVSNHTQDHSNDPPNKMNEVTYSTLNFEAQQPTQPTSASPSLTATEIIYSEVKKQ

recombinant UspA1 fragment 4-7 (peptide)
inhibition of binding of H. influenzae to CHO-CEACAM1 transfectants: 10 µg per ml
inhibition of binding of M. catarrhalis strain MX1 to CHO-CEACAM1 transfectants: 1 µg/mL
